Results reported in the DeepSol protein solubility set.

Experiment: soluble on expression in E. coli; label from the status in PepcDB or PDB records

Q: Which “soluble on expression in E. coli” value does the source give for “MGSDKIHHHHHHMIHFVPPHLEKVRAKLPEIAPTVDVILANLEDAIPADAKGAALAGLVAMSREVDFKALGVGFWTRINCLNSPWHLDEIATIVEKAGDKIDVIMVPKVEGPWDIFYMDQLLASLEAKHGVTRPILLHAILETAEGVMNVEAIAAASPRMQGISLGPADLAASRAMKTTRVGGGHPGYRVIEDPHADGSARVSVQQDLWHYTFAKMVDACAAHGIKPFYGPFGAIDDPVACEQQFRNAFLMGCAGAWSLHPSQIEIAKRVFSPDPAEVAFAKKILEAMPDGTGVAMIDGKMQDDATWKQAKVMVDCARQIAGKDAEYAGLYGL” here?
A: Its value is “not soluble”.

Q: With “MTKIFIRDDNGGTEMSQDPFQEREAEKYANPIPSREFILEHLTKREKPASRDELAVELHIEGEEQLEGLRRRLRAMERDGQLVFTRRQCYALPERLDLVKGTVIGHRDGYGFLRVEGRKDDLYLSSEQMKTCIHGDQVLAQPLGADRKGRREARIVRVLVPKTSQIVGRYFTEAGVGFVVPDDSRLSFDILIPPDQIMGARMGFVVVVELTQRPTRRTKAVGKIVEVLGDNMGTGMAVDIALRTHEIPYIWPQAVEQQVAGLKEEVPEEAKAGRVDLRDLPLVTIDGEDARDFDDAVYCEKKRGGGWRLWVAIADVSYYVRPPTPLDREARNRGTSVYFPSQVIPMLPEVLSNGLCSLNPQVDRLCMVCEMTVSSKGRLTGYKFYEAVMSSHARLTYTKVWHILQGDQDLREQYAPLVKHLEELHNLYKVLDKAREERGGISFESEEAKFIFNAERRIERIEQTQRNDAHKLIEECMILANISAARFVEKAKEPALFRIHDKPSTEAITSFRSVLAELGLELPGGNKPEPRDYAELLESVADRPDAEMLQTMLLRSMKQAIYDPENRGHFGLALQSYAHFTSPIRRYPDLMLHRAIKYLLAKEQGHQGNTTETGGYHYSMEEMLQLGQHCSMAERRADEATRDVSDWLKCDFMLDQVGNVFKGVISSVTGFGFFVRLDDLFIDGLVHVSSLDNDYYRFDQVGQRLMGESSGQTYRLGDRVEVRVEAVNMDERKIDFSLISSERAPRNVGKTAREKAKKGDAGKKGGKRRQVGKKVNFEPDSAFRGEKKTKPKAAKKDARKAKKPSAKTQKIAAATKAKRAAKKKVAE” as the sequence, how does the “soluble on expression in E. coli” value read?
A: The value was “not soluble”.

Q: For “MGSDKIHHHHHHMNRLEIVNNISTNIERERIKLGMSQAQFAKALDMSLSTYKRIANGESSRIDVYTAYLIYKLTGRFSCELTGFNDDVINLVKRIKKLSKSQRILIDSIIDTELALSAYKDESCHTEDLISVLIPTGNMTDGMILDSYNVEKLDVSNYRKAFGDALHIGIRITSNHLHPVYNKGDILLISRNPIRDGDTGIFINAQNKRAYIRKLHQKNPCELTPINNYGETFYVDSDNVDDMSKWIKFGHVLCKVR”, which “soluble on expression in E. coli” value is on record?
A: Its value is “not soluble”.

Q: Which “soluble on expression in E. coli” value does the source give for “LLSPPIALKPLDSSAKWRIIYWNPNGCDKTCLKQLNMLGRVRLSFGRKLYQVDEWLLLSNKDSLIAEELKPILKEQDIHVAALSLTEMSKLSTLYPEAKIFIANPDNYLILSYQPGCNPGDIYKDLKLLLNTTE” here?
A: Its value is “not soluble”.

Q: With GPPGPPGPPGPPGPRGRTGPPGPPGPPGPP as the sequence, how does the “soluble on expression in E. coli” value read?
A: The value was “soluble”.

Q: For “MGSDKIHHHHHHMAQIKPISGAEDRVLLAEALPLVSPFTLNVFPTNACNFKCSYCAQSLGAEALAATYGMDRGFMSLETMELIVEQSKAFAPYKLLSFMGHGEPLLNRDLPKMISLAARAGIAQRIEIITNASMLTHEYADELIDSGLTNLRVSLQGLDMESYRKICGVALDFDRFMERLVYFYTHKKKDMGLFVKIMDVSLPIGGAKEFYKLFNNICDRMYVENVQPVYHAVDVHSSNGSDLTRYDRYGNAHPPRTVCPLAFFSLAVWPNGDVQPCDAIYKPCVLGNVHNTNLREMWDSELLKQFRIRHLRGEKEIITGCSNCCAPDDVSHPLDALDDRKDEILCRLFG”, which “soluble on expression in E. coli” value is on record?
A: Its value is “not soluble”.

Q: For “MNRRMMLASAALLLAPLAAQAQTRDVSVTIYNSNLALVEDARPLDLKAGRQKLEFKDVSAAIRPETVSLSAPGVTILEQNFDYDLLTPDKLMEKAVGQKVKIVRTNPGDGKETTEVATVLAANQGVVLKIGDRIEVLRDDGVPTRVIFDKVPETLRARPTLSVSVEAAGAGTRQAKLSYLTSGLSWKADYVALFDEAKSTMDLQGWITLSNNSGTPFENARTQLVAGDVNQLNDGGYRSSRSPGMISAGTESGVGERVADYYVYPLPERTTIASNQNKQVGFLSAQGVTAKKVYEVREGWFTSQAEPTKAVVAIQFSNARLAGLGAQLPMGTMRVYMRDAAGDPKFVGENAIGHTPAGSELSIKTGEAFDVSGQATLVAESRVSKRLTRYEMKYLLRNAKDQPVTVELRQGGLGRDSTVKAESLKGRRIDAGTLGWSVPVPANGETVLTFTVETGWLEHHHHHH”, which “soluble on expression in E. coli” value is on record?
A: The value was “soluble”.

Q: Which “soluble on expression in E. coli” value does the source give for “KEKFNYYIGANIAADKNEVTKITLGGQNLMISGYSAHGAGGRGINMFAEGHPMSYFNLIETDGLFRSAEEIANYKNKDGELIQPAAQVGDVRYKDWNGDGKINTDDQHDVGSPFPDFTFGIRLGGEWNNFDFNLFFDGMVGNKIYNYPRYRLESGNFNGNMSTVLANSWRPDNQNTDIPRFSKTDGADNKWAYTDRWLEDGSYIRLKTLDIGYTLPKVLTKKIKLENVRIYTSMENLFTLTKYSGYTPDLGESSVAGVAYNVFSRGIDQGRYPLPRTISFGIQVNL” here?
A: The value was “not soluble”.

Q: With “MGSDKIHHHHHHQTPSPLGEWQYSAGVPLDKLFNPNPQTWQISVGAAATLQPRYDGSNQYRPMAGPTFDARYRDLWFVSTGEGIGVNVLRGPNWRATLSAGYDLGRREADDRGHLTGIGNINPAAVIKLSADYVISHAFPLVLRADVRRSVGGANGWVADLAAYMPLPGSSETFYWFAGPTVTFADSRYMNSWFGVNDAQAARSGHPRYAPSAGVKSFGGGMTLVWFVTKHWFVTADGAIEQLVGSAARSPLTQRSTNAVVDVSINYQF” as the sequence, how does the “soluble on expression in E. coli” value read?
A: The value was “not soluble”.

Q: Which “soluble on expression in E. coli” value does the source give for “MGSDKIHHHHHHMLSLKSEVLARHLPLFNGKSILLFGNVRDRFADQIRSISSHVAIFSHYFDYARHYNDVEFGLDCTTPANLGVFYWTKNKQECHYQLLQWLSQTAIGQQMLIIGENRAGVRSVEKLLSPFGQIAKIDSARRCGLYHFELQTIPQFDCQKFWKSYRLADLTVLSLPAAFSSTELDAGSQLLLSSFTNQDRLTGNVLDLGCGAGVIGAYLKQRFPAISLTMSDIHSMAIHSAQATLAKNKLTGTVIASDVFSHINDRFDLIVSNPPFHDDIDTAYHTVESLIMQAKNHLNYGGELRIVANAFLPYPDLLDKAFGSHQVVTKSNKFKVYSARV” here?
A: The value was “not soluble”.

Q: Which “soluble on expression in E. coli” value does the source give for “MKTKSPALSGKLTDTELRTLRIFMAVVHYSGFTPAALELNVSRSAVSIAMADLEKRLSLRLCERGRAGFSLTTEGREVYRSTRQLFSALDQFRIQINAIHFNLKGELNIGITDNLVTMPQMRITSALRELNRLGPDVQINIQMIPPNEIISGVLDGQLHTGVIPVQKHYEGLEYLLLYEERSSLYCGQEHELFCRHDSELSPSMLKQYNGVLPAYDQTSEIKALHHELQLSASATDREGVAFLILTGRYIGYLPDHYAHRWVKEGVMRAILPANMSYLTPFATITKKGAPSNLVLENYLEQLKLASTTAGG” here?
A: Its value is “not soluble”.

Q: Which “soluble on expression in E. coli” value does the source give for “MAHHHHHHMGTLEAQTQGPGSMIGITQAEAVLTIELQRPERRNALNSQLVEELTQAIRKAGDGSARAIVLTGQGTAFCAGADLSGDAFAADYPDRLIELHKAMDASPMPVVGAINGPAIGAGLQLAMQCDLRVVAPDAFFQFPTSKYGLALDNWSIRRLSSLVGHGRARAMLLSAEKLTAEIALHTGMANRIGTLADAQAWAAEIARLAPLAIQHAKRVLNDDGAIEEAWPAHKELFDKAWGSQDVIEAQVARMEKRPPKFQGA” here?
A: Its value is “soluble”.

Q: With “MHFELNQATHCKNHVVIHNELSPGIILNIACRKGSIDDKPTRFHKLNFKDPSYVIEFEDNYPNDETWYCLLSHGTRPKYWYDIQVYRQGIQPKCNQLRLWIARMDGIWFTRRYESPPGHVLDWKI” as the sequence, how does the “soluble on expression in E. coli” value read?
A: The value was “not soluble”.

Q: With “MSLHAVDHHAILARFAPSRGGDGNIFRDIDPSRLAHIVVDMQNGFMEEGAPVEVPVARTIVDNINRISAAVRDAGGHNVFLRYTTPPEGGPSWSNFMVRMGREAQGHREAFTPGAHHWQLWPTLDVREADAIVDKHRFSGFTPGTCALKDVLDARGIDTVLITGTLTNCCCESTARDAMQHNYRVLMASDANAALSDEEHAATLHIMAMVFADLHSTQEVVDLLGSEGHHHHHH” as the sequence, how does the “soluble on expression in E. coli” value read?
A: Its value is “soluble”.

Q: With “GMTFEPYPFERLRALLKEITPKKRGLDLGIGEPQFETPKFIQDALKNHTHSLNIYPKSAFEESLRAAQRGFFKRRFKIELKENELISTLGSREVLFNFPSFVLFDYQNPTIAYPNPFYQIYEGAAKFIKAKSLLMPLTKENDFTPSLNEKELQEVDLVILNSPNNPTGRTLSLEELISWVKLALKHDFILINDECYSEIYENTPPPSLLEACMLAGNEAFKNVLVIHSLSKRSSAPGLRSGFIAGDSRLLEKYKAFRAYLGYTSANAIQKASEAAWLDDRHAEFFRNIYANNLKLARKIFKNTLIYPYSFYVYLPVQNGENFAKTLYQNEGIITLPALYLGRNRIGADYVRLALVYDTPLLEKPLEIIETYRENHA” as the sequence, how does the “soluble on expression in E. coli” value read?
A: Its value is “soluble”.

Q: For “METAMSKGVITITDAEFESEVLKAEQPVLVYFWASWCGPCQLMSPLINLAANTYSDRLKVVKLEIDPNPTTVKKYKVEGVPALRLVKGEQILDSTEGVISKDKLLSFLDTHLNNN”, which “soluble on expression in E. coli” value is on record?
A: Its value is “soluble”.

Q: Which “soluble on expression in E. coli” value does the source give for “MNNDLAPHLDIALRHSPPGLAATPIPRVDICVGQGFTEKAPCLYRSMICFILQGSKRVAINDNLLSYDSEHYLISALDLPLIGQILDAEDGQPYVAVSLVLDPALLAVLAASMPAVREREQKGIGITINPMSAPLRDTLLRLLSLLDTPDDIPILAPMVERELLYRLLQGPQGRLL” here?
A: Its value is “not soluble”.

Q: With “MSLIITDDHMHLYNHLKLKALEQFRDAGGTHVFLVNLLCHHYGIRPTSGKDFREVFERHLSLVEKANKIVKAYAVLGVHPAEITVIGDRIGHEKAAEMMKEALEIAGKYVEEGKAVALKSGRPHYPVSRHVWQLSNDVLRHAFEVAKDVGCAIQLHTESYTKEGMLEIAKMADEVGLKREKVVKHFSPPLIKEFEEIGIFPSVLAGNNNVLKAAEQGNRFTVETDYIDDRKRPGAVLGPKTVPRKVKELIELGYEDIAYKICVENVEKVYGVELEEEGHHHHHH” as the sequence, how does the “soluble on expression in E. coli” value read?
A: The value was “soluble”.

Q: For “MSKKLLIKTWGCQMNEYDSSKMADLLNAANGYELTEEPEEADVLLLNTCSIREKAQEKVFHQLGRWKTLKDKKPGVVIGVGGCVATQEGDHIRERAPYVDVIFGPQTLHRLPEMIKQSQTDDAPVMDISFPEIEKFDRLPEPRAEGATAFVSILEHHHHHH”, which “soluble on expression in E. coli” value is on record?
A: The value was “not soluble”.

Q: For “MFDIPGLSTGDFHGFPSLLIQTPFSHAAISLFGGQLLSFVPSGGEEVIWLSPLVQPPPTAIRGGIPICWPYFGRQGQRDTMPAHGFVRTVPWQQVESCQENDGSLFLVLAPPPLKHLGLHLRMTLRIGRTLEQELATENISHAPISFTQALHNYFRVSNALQVTVQGLDGVEYLDKFEGYTQRHRQQGHWTLQDPRDPGRADRIYVDTSGHYVLVDPLFSRRIVLTTEGSHSLVVWNPGHAGASNMIDVADGWRDYLCLEPANAGPDEIELLPGARHVLRQSIAIAPL”, which “soluble on expression in E. coli” value is on record?
A: Its value is “soluble”.

Q: Which “soluble on expression in E. coli” value does the source give for “MELKPTAPPIFTGRPFVVAWDVPTQDCGPRLKVPLDLNAFDVQASPNEGFVNQNITIFYRDRLGLYPRFDSAGRSVHGGVPQNVSLWAHRKMLQKRVEHYIRTQESAGLAVIDWEDWRPVWVRNWQDKDVYRRLSRQLVASRHPDWPPDRIVKQAQYEFEFAAQQFMLETLRYVKAVRPRHLWGFYLFPDCYNHDYVQNWESYTGRCPDVEVARNDQLAWLWAESTALFPSVYLDETLASSRHGRNFVSFRVQEALRVARTHHANHALPVYVFTRPTYSRRLTGLSEMDLISTIGESAALGAAGVILWGDAGYTTSTETCQYLKDYLTRLLVPYVVNVSWATQYCSRAQCHGHGRCVRRNPSASTFLHLSTNSFRLVPGHAPGEPQLRPVGELSWADIDHLQTHFRCQCYLGWSGEQCQWDHRQAAGGASEAWAGSHLTSLLALAALAFTWTL” here?
A: Its value is “not soluble”.
